± gives the uncertainty stated by the source.
Experiment: protein stability index of a GFP-peptide fusion (yeast GPS) (PSI 1-4); higher = more stable; sorted into four equal gates, so the index is relative within each strain
Outline: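 Plasmids in a pooled yeast library fused tiled 17-residue yeast protein peptides downstream of GFP and also expressed Cherry. Mid-log cultures grown without leucine were sorted into four equal gates by GFP/Cherry fluorescence ratio. Each gate's plasmids were PCR-amplified and Illumina-sequenced, and reads were matched to strains by barcodes. The protein stability index is derived by multiplying each gate's read frequency by its gate number and summing the results.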

Sequence	protein stability index (doa10∆)	protein stability index (pdr5∆)	protein stability index (san1∆)	protein stability index (ubr1∆)
LAMNDDDFLSKKRKAGR [SNF2]	3.41 ± 0.11	3.58 ± 0.084	3.16 ± 0.1	3.52 ± 0.091
LIAIVSKLLQTTLKLSP [NUT1]	2.19 ± 0.042	1.39 ± 0.063	1.31 ± 0.11	1.21 ± 0.066
DRVIFRVPIRSEYKVAF [PRP8]	2.93 ± 0.069	2.71 ± 0.061	2.55 ± 0.077	2.42 ± 0.034
VTKEYFQDVYDLTGSEP [FAS1]	2.53 ± 0.23	2.82 ± 0.078	1.43 ± 0.18	2.68 ± 0.092
KASKEIKKVICGAWEPA [SIR3]	2.15 ± 0.25	–	–	2.67 ± 0.11
IVTALLESDVNIALVSK [SRP54]	3.22 ± 0.18	3.19 ± 0.088	3.24 ± 0.12	3.35 ± 0.12
TNFKEEITDASLNLQYV [YML103C/NUP188]	3.08 ± 0.12	3.06 ± 0.084	3.18 ± 0.13	3.06 ± 0.087
PPPPQQSQPIANQSATS [SNF5]	2.96 ± 0.057	3.15 ± 0.049	2.92 ± 0.043	3.05 ± 0.041
VSGDAAALFRLHKFLTK [SWI3]	2.92 ± 0.14	2.6 ± 0.15	2.72 ± 0.098	3.08 ± 0.11
SAISVTNVEDPLAKKQT [SIR2]	–	–	–	3.2 ± 0.21
LLLKKLDNFQKSVEKTM [SMC3]	2.54 ± 0.2	2.74 ± 0.23	2.44 ± 0.24	2.88 ± 0.17
YPREEEEDYNEFNSIDR [PRP8]	3.32 ± 0.09	3.24 ± 0.1	3.1 ± 0.068	3.27 ± 0.08
GSELVQKYVGEGARMVR [RPT1]	2.57 ± 0.22	2.84 ± 0.085	3 ± 0.085	2.81 ± 0.05
STIITKAINQELEDVAV [YCS4]	2.96 ± 0.23	3.22 ± 0.11	2.72 ± 0.057	3.04 ± 0.061
SIGRTAQGKEFGVTKAR [RPL17A]	3.28 ± 0.14	3.44 ± 0.12	3.05 ± 0.096	–
EIALKGLESLLNIGLGA [YCS4]	2.65 ± 0.11	2.47 ± 0.092	3.03 ± 0.13	2.77 ± 0.21
NLDYLFELIELVTPKSF [NUT1]	2.85 ± 0.057	3 ± 0.082	3.09 ± 0.062	3.31 ± 0.063
VGSENVECTISILRKSS [SNF12]	1.89 ± 0.042	2.23 ± 0.044	2.43 ± 0.044	2.11 ± 0.036
RAEALNISGEFFRNKLK [RPL16B]	–	2.4 ± 0.25	–	2.9 ± 0.13
ITVTAKQQPTMQANKLD [SWI3]	3.19 ± 0.096	3.15 ± 0.071	2.82 ± 0.07	3.01 ± 0.055
EDFMDIPKPRTAGKTSV [SNF2]	2.67 ± 0.14	3.24 ± 0.085	3.2 ± 0.18	3.08 ± 0.06
FKKLTKDIFRYMQRTVE [RPB2]	1.63 ± 0.045	1.4 ± 0.034	1.25 ± 0.087	1.36 ± 0.033
EMNLHVPQSEETRAELS [RPO21]	3.17 ± 0.2	3.31 ± 0.092	3.1 ± 0.1	3.15 ± 0.11
ININEFALPAGSPKSAT [CDC53]	2.71 ± 0.067	2.76 ± 0.053	2.64 ± 0.07	2.73 ± 0.04
GKKLTDEINTAQDKWHL [RET1]	3.22 ± 0.1	3.18 ± 0.084	3.09 ± 0.054	2.95 ± 0.13
IADQDMEDEDMVDVIID [ESC2]	3.41 ± 0.16	3.3 ± 0.079	3.15 ± 0.088	3.15 ± 0.11

Sequence	protein stability index (doa10∆)	protein stability index (pdr5∆)	protein stability index (san1∆)	protein stability index (ubr1∆)
EKLTSKSLDEQLLLLSD [LRP1]	3.16 ± 0.077	3.44 ± 0.065	2.94 ± 0.038	3.31 ± 0.036
NLDAAAAGTSQARTATL [RPC10]	2.65 ± 0.17	3.15 ± 0.15	2.73 ± 0.1	2.86 ± 0.096
LVEEKTPGLTFNAIDLA [RPC82]	3.23 ± 0.12	3.29 ± 0.11	3.25 ± 0.057	3.27 ± 0.086
TNKDNKAELIKPIQNGE [ARP9]	3.34 ± 0.071	3.14 ± 0.083	3.4 ± 0.046	3.16 ± 0.072
NLKGRPYTGWVDSKTKE [FAS2]	3.03 ± 0.062	2.95 ± 0.047	3.11 ± 0.048	3.04 ± 0.045
TMIKKTTLVTRREELQQ [SMC3]	2.88 ± 0.13	2.94 ± 0.11	3.1 ± 0.16	2.55 ± 0.18
HHSWSQSDLEIITQYVF [ARP9]	2.29 ± 0.051	2.82 ± 0.056	2.73 ± 0.056	3.08 ± 0.044
QRRVLLSAPLSKELRAQ [RPL26A]	2.65 ± 0.073	2.43 ± 0.078	2.62 ± 0.08	2.39 ± 0.063
ELAGDEELEAEQIDVFS [PRP8]	3.43 ± 0.079	3.27 ± 0.13	3.08 ± 0.12	2.82 ± 0.13
GRQFCNRLSRIHLYMLT [YLR018C/POM34]	1.68 ± 0.051	1.87 ± 0.05	1.69 ± 0.1	1.8 ± 0.04
TTLNEMFRYKTNLYKLK [PUP3]	3.06 ± 0.14	2.66 ± 0.11	1.76 ± 0.13	2.08 ± 0.1
SVTEIPLKLSGEGPFTV [YMR129W/POM152]	2.96 ± 0.072	3.23 ± 0.079	2.78 ± 0.078	2.81 ± 0.16
PINLENNDGSYGLFLKY [SRB8]	3.07 ± 0.11	2.34 ± 0.075	2.18 ± 0.14	1.81 ± 0.069
AETLCFTVNVLYPDSSS [RPN3]	2.56 ± 0.055	2.69 ± 0.05	2.97 ± 0.052	2.87 ± 0.041
DLLRSQLTSLEKDCSLR [YIL149C/MLP2]	2.94 ± 0.061	3.05 ± 0.063	2.33 ± 0.077	3.03 ± 0.042
LRRGNYAQRIGSGAPVY [HTA1]	2.19 ± 0.21	2.86 ± 0.17	2.4 ± 0.26	–
SVERGRKRAHSLVSTQS [REC8]	3.21 ± 0.082	3.12 ± 0.066	3.26 ± 0.047	3.16 ± 0.042
NRMQISPDQMRNLQMGL [GRR1]	–	3.18 ± 0.12	3.27 ± 0.11	2.83 ± 0.12
LAEEVVDNIVNKYQYSL [SRP68]	3.09 ± 0.069	2.98 ± 0.069	2.82 ± 0.056	2.92 ± 0.046
DGKKHSVFYTILRDYGP [RPO31]	2.86 ± 0.072	2.95 ± 0.067	3.19 ± 0.054	2.87 ± 0.06
LGDMAVCFNNLVDENTD [YCS4]	2.61 ± 0.068	2.8 ± 0.077	2.72 ± 0.076	2.85 ± 0.064
ASVEIVFHDPDHSMILP [SMC3]	2.26 ± 0.11	2.54 ± 0.12	2.98 ± 0.15	2.65 ± 0.079
YQNQFVEFCRNINSTDK [YML103C/NUP188]	3.04 ± 0.11	2.76 ± 0.088	2.6 ± 0.12	2.92 ± 0.049
AIDHLKAELEKQKSWVP [YIL149C/MLP2]	3.05 ± 0.076	2.83 ± 0.073	2.98 ± 0.11	2.91 ± 0.051
FANNHFLNSNAVVVGTG [COR1]	1.41 ± 0.064	1.91 ± 0.061	2.33 ± 0.064	2.04 ± 0.056
DMIKCFLPKLNSVRNSL [NUT1]	2.52 ± 0.053	2.48 ± 0.089	2.47 ± 0.075	2.18 ± 0.035

Sequence	protein stability index (doa10∆)	protein stability index (pdr5∆)	protein stability index (san1∆)	protein stability index (ubr1∆)
IQPTAKVVYIQRRSWRQ [DIS3]	1.52 ± 0.1	1.48 ± 0.072	1.31 ± 0.13	1.16 ± 0.12
EYKVITSLQGTYEAIEI [YMR129W/POM152]	3.34 ± 0.2	2.99 ± 0.2	2.89 ± 0.14	3.17 ± 0.13
QSVEEKVLEMKNLKDTA [YIL149C/MLP2]	2.81 ± 0.25	2.58 ± 0.2	–	2.78 ± 0.089
NGAVGKREGKTRLLNIV [ISW2]	3.27 ± 0.12	2.95 ± 0.11	3.03 ± 0.051	2.97 ± 0.088
DDPFMTKSGATTSEKQE [GAL11]	2.97 ± 0.18	3.26 ± 0.13	2.82 ± 0.23	–
YYYYHPMNAPTPAMIPY [DSN1]	2.14 ± 0.047	2.39 ± 0.05	2.49 ± 0.066	2.46 ± 0.039
VISFGQPKLNPMASSSS [SWI1]	2.15 ± 0.06	1.92 ± 0.074	2.61 ± 0.11	2.13 ± 0.056
NDLQSETKTKKEKIKGL [SMC4]	3.32 ± 0.2	3.25 ± 0.25	–	3.5 ± 0.12
LKEVPTYRYVSVSVLVD [RPS25A]	2.64 ± 0.079	2.13 ± 0.069	1.33 ± 0.1	1.66 ± 0.038
MPPKKSWRNITNLSGGE [SMC4]	2.69 ± 0.12	2.85 ± 0.14	2.64 ± 0.12	2.96 ± 0.1
ANLMLVMLRLLLVVIFK [SRB4]	1.49 ± 0.045	1.51 ± 0.047	1.24 ± 0.088	1.46 ± 0.034
PVIDYELKEITSLPDWC [BRR2]	2.8 ± 0.099	2.78 ± 0.086	3.1 ± 0.086	3.05 ± 0.048
SGDKEATAPLIQRKNKK [RPN8]	3.39 ± 0.2	3.35 ± 0.14	3.25 ± 0.095	–
EEAGEEEAKEEVTEEQA [RPS0A]	3.48 ± 0.12	3.5 ± 0.1	3.02 ± 0.13	3.64 ± 0.092
KLYTKELSVTGSAINHH [YMR129W/POM152]	1.22 ± 0.12	1.35 ± 0.077	1.46 ± 0.23	1.49 ± 0.06
DYNKKQDRIQDVKLVLA [MED1]	2.69 ± 0.078	2.83 ± 0.074	2.28 ± 0.11	2.28 ± 0.072
VKSKIQDKEGIPPDQQR [RPS31]	3.08 ± 0.076	3.48 ± 0.075	3.41 ± 0.051	3.44 ± 0.061
YDEDPYGFEDESAPITA [RPB2]	3.05 ± 0.071	3.18 ± 0.054	3.24 ± 0.048	3.17 ± 0.065
LCEEYLVNNGQSDLEHD [RPN7]	2.78 ± 0.11	2.63 ± 0.11	2.66 ± 0.081	2.48 ± 0.12
NIKTIAETLAEELINAA [RPS5]	2.29 ± 0.067	2.87 ± 0.073	2.85 ± 0.057	2.46 ± 0.048
IVFHNEFSEHTFVERLP [DIS3]	2.43 ± 0.05	2.28 ± 0.063	2.64 ± 0.058	2.68 ± 0.053
KDIEKLTNEISDLKGKL [YIL149C/MLP2]	3.04 ± 0.11	3.12 ± 0.049	3.34 ± 0.067	3.17 ± 0.057
QEYAIEMKIGSIESKLE [SMC1]	2.84 ± 0.091	3.34 ± 0.12	2.74 ± 0.1	2.94 ± 0.093
NDQALIKVLLRQNRRPE [RET1]	1.83 ± 0.087	2.45 ± 0.094	3.01 ± 0.079	2.77 ± 0.059
ESDNYRLLPNGSNKAQI [YML031W/NDC1]	3.08 ± 0.061	3.18 ± 0.067	2.78 ± 0.047	2.95 ± 0.035
